Results published in patent publication EP2325637A1.

Molecular target: GFP-tagged Rab11a (UniProt P62491)
Test: cell-based or functional assay

Sequence of UniProt P62491 (P62491 whole entry): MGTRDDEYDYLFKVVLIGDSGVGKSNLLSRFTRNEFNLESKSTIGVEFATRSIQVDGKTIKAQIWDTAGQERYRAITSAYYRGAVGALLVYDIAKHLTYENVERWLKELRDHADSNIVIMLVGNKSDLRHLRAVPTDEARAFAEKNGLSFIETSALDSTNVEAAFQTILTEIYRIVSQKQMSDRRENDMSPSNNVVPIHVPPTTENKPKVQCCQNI

mCherry-MyoVa(1100-1853) fusion protein (from UniProt Q9Y4I1 1100-1828)
colocalisation (confocal microscopy, HeLa cells): 100%
